Test results: PMC4477857 (The Journal of Cell Biology, 2015)

Target: T1, purified recombinant STIL (human, UniProt Q15468 1-1287)
T1 sequence (looked up): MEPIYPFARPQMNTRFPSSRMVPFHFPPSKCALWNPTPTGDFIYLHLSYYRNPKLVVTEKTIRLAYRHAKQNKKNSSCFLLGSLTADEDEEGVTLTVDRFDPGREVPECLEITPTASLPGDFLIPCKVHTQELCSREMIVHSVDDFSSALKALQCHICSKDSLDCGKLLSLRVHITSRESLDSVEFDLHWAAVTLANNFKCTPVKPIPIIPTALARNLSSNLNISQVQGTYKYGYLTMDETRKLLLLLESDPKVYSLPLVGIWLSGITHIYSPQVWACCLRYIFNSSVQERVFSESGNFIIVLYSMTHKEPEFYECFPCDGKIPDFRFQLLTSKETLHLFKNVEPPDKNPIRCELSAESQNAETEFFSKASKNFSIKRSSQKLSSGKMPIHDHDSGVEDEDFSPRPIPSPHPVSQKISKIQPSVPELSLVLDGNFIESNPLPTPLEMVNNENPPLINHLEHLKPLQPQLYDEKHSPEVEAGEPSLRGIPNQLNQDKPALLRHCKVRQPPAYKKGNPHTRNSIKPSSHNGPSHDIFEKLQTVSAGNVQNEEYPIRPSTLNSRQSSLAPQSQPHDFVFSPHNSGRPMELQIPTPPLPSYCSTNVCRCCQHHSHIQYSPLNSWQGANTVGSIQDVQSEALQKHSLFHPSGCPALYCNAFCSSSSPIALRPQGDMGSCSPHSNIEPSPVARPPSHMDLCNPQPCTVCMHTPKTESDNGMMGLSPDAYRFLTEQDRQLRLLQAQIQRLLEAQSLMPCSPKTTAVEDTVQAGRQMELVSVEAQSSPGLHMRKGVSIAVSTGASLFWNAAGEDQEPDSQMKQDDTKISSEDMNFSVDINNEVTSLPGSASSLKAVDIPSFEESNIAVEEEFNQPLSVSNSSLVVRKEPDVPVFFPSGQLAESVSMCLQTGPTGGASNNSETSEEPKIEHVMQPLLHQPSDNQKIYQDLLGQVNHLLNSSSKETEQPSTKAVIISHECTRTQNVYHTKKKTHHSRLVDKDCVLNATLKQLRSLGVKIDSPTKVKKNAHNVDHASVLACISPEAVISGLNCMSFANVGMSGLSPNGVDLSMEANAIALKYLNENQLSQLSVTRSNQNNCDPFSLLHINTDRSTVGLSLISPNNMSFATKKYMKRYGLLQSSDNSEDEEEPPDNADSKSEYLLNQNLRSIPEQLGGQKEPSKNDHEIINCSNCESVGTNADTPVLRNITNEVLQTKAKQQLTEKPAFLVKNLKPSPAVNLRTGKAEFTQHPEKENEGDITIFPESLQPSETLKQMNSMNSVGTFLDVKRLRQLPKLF
Experiment: pull-down

binding result: binds
B1: GST-hPlk4 (enzyme, human, UniProt O00444 1-970, looked up)
chain: MATCIGEKIEDFKVGNLLGKGSFAGVYRAESIHTGLEVAIKMIDKKAMYKAGMVQRVQNEVKIHCQLKHPSILELYNYFEDSNYVYLVLEMCHNGEMNRYLKNRVKPFSENEARHFMHQIITGMLYLHSHGILHRDLTLSNLLLTRNMNIKIADFGLATQLKMPHEKHYTLCGTPNYISPEIATRSAHGLESDVWSLGCMFYTLLIGRPPFDTDTVKNTLNKVVLADYEMPSFLSIEAKDLIHQLLRRNPADRLSLSSVLDHPFMSRNSSTKSKDLGTVEDSIDSGHATISTAITASSSTSISGSLFDKRRLLIGQPLPNKMTVFPKNKSSTDFSSSGDGNSFYTQWGNQETSNSGRGRVIQDAEERPHSRYLRRAYSSDRSGTSNSQSQAKTYTMERCHSAEMLSVSKRSGGGENEERYSPTDNNANIFNFFKEKTSSSSGSFERPDNNQALSNHLCPGKTPFPFADPTPQTETVQQWFGNLQINAHLRKTTEYDSISPNRDFQGHPDLQKDTSKNAWTDTKVKKNSDASDNAHSVKQQNTMKYMTALHSKPEIIQQECVFGSDPLSEQSKTRGMEPPWGYQNRTLRSITSPLVAHRLKPIRQKTKKAVVSILDSEEVCVELVKEYASQEYVKEVLQISSDGNTITIYYPNGGRGFPLADRPPSPTDNISRYSFDNLPEKYWRKYQYASRFVQLVRSKSPKITYFTRYAKCILMENSPGADFEVWFYDGVKIHKTEDFIQVIEKTGKSYTLKSESEVNSLKEEIKMYMDHANEGHRICLALESIISEEERKTRSAPFFPIIIGRKPGSTSSPKALSPPPSVDSNYPTRERASFNRMVMHSAASPTQAPILNPSMVTNEGLGLTTTASGTDISSNSLKDCLPKSAQLLKSVFVKNVGWATQLTSGAVWVQFNDGSQLVVQAGVSSISYTSPNGQTTRYGENEKLPDYIKQKLQCLSSILLMFSNPTPNFH
